The values that follow come from patent US20240156961A1, “TISSUE-SPECIFIC ANTIGENS FOR CANCER IMMUNOTHERAPY” (priority 2020, published 2024).

Assay [1] addresses T1, class I HLA molecules (Homo sapiens, UniProt P01889).
T1 construct: Frozen cell pellets endogenously expressing MHC molecules (untagged) or biotin acceptor peptide (BAP)-tagged MHC molecules; biotin acceptor peptide (BAP), only in some samples; endogenous in cells; host or cells: Human cell lines (e.g. MDAPCa2b, CAMA1, HCC1500, A375, Expi293, B721) and human tissue (prostate, tumours); some cell samples express BAP-tagged HLA
As to the kind of experiment: Targeted mass spectrometry MHC-peptide analysis (SureQuant, heavy isotope-labeled synthetic peptides). As to conditions: light endogenous vs heavy isotope-labeled synthetic peptide; human prostate specimen; HLA-B*07:02; Skyline software.
Procedure: Tissue samples were homogenized in lysis buffer plus benzonase nuclease. All lysates were cleared by centrifugation. […] BAP-tagged samples were biotinylated with 0.56 μM biotin, 1 mM ATP, and 1 μM BirA biotin ligase for 10 minutes, and subsequently incubated with High-Capacity NeutrAvidin Agarose resin for 30 minutes at 4° C. with end-over-end rotation. […] MHC molecules were eluted using 10% acetic acid and peptides were isolated using 10K molecular weight cut-off filtration following filter passivation with 1% bovine serum albumin (BSA). If required, samples were next reduced and alkylated using 5 mM Bond-Breaker TCEP solution at 60° C. for 30 min followed by 15 mM 2-Iodoacetamide for 30 min, protected from light. […] The volume of eluted peptides was reduced using vacuum centrifugation. For targeted analyses, isolated MHC-I peptides were labeled using an isobaric labeling reagent from the tandem mass tag (TMT) 10-plex reagent set (Thermo Fisher). Dried peptides were resuspended in 50 mM HEPES buffer pH 8.5 and combined with 33.3 μg of TMT solubilized in 100% anhydrous acetonitrile. […] Peptides were analyzed using SureQuant targeted data acquisition strategy, where the heavy isotope labeled synthetic peptide serves as a trigger to guide the acquisition of spectrum corresponding to the light (unlabeled) endogenous MHC peptide using mass offset triggering and pseudo-spectral matching. […]

Assay [2] concerns the target T2, HLA-C*07:02 (human).
T2 construct: MHC class I molecule expressed by the cells or tissue sample (endogenous or BAP-tagged), immunopurified before peptide elution
As to the kind of experiment: MS validation of HLA class I-presented peptide; sample human prostate. The protocol:
(§1) Frozen cell pellets endogenously expressing MHC molecules (untagged) or biotin acceptor peptide (BAP)-tagged MHC molecules were lysed by pipetting and end-over-end rotation for twenty minutes using lysis buffer [20 mM Tris-Cl pH 8, 100 mM NaCl, 6 mM MgCl2, 1.5% (v/v) Triton X-100, 60 mM octyl B-D-glucopyranoside, 0.2 mM of 2-Iodoacetamide, 1 mM EDTA pH 8, 1 mM PMSF, 1× complete EDTA-free protease inhibitor cocktail (Roche)] plus benzonase nuclease for twenty minutes. Tissue samples were homogenized in lysis buffer plus benzonase nuclease. All lysates were cleared by centrifugation. Samples with untagged MHC molecules were subsequently incubated with GammaBind Plus Sepharose Beads (GE Healthcare) pre-charged with a pan-HLA A/B/C antibody (clone W6/32) overnight at 4 C with end-over-end rotation. BAP-tagged samples were biotinylated with 0.56 μM biotin, 1 mM ATP, and 1 μM BirA biotin ligase for 10 minutes, and subsequently incubated with High-Capacity NeutrAvidin Agarose resin for 30 minutes at 4° C. with end-over-end rotation. Following enrichment, beads were washed 2× with wash buffer A [20 mM Tris-Cl pH 8, 100 mM, NaCl, 60 mM octyl B-D-glucopyranoside, 0.2 mM of 2-Iodoacetamide, 1 mM EDTA pH 8] and wash buffer B [10 mM Tris-Cl pH 8] using a positive pressure manifold. MHC molecules were eluted using 10% acetic acid and peptides were isolated using 10K molecular weight cut-off filtration following filter passivation with 1% bovine serum albumin (BSA). If required, samples were next reduced and alkylated using 5 mM Bond-Breaker TCEP solution at 60° C. for 30 min followed by 15 mM 2-Iodoacetamide for 30 min, protected from light. Samples were next acidified using 100% formic acid and desalted using 10 mg Sep-Pak tC18 μElution plates with peptide elutions at 15% acetonitrile and 50% acetonitrile, which were subsequently pooled. The volume of eluted peptides was reduced using vacuum centrifugation.

Assay [3] addresses T3, HLA-A*02:01 (human).
T3 construct: MHC class I molecule expressed by the cells or tissue sample (endogenous or BAP-tagged), immunopurified before peptide elution
As to the kind of experiment: MS validation of HLA class I-presented peptide; samples CAMA1, HCC1500. The protocol: as §1, with “MHC molecules were eluted using 10% acetic acid and peptides were isolated using 10K molecular weight cut-off filtration following filter passivation with 1% bovine serum albumin (BSA). If required, samples were next reduced and alkylated using 5 mM Bond-Breaker TCEP solution at 60° C. for 30 min followed by 15 mM 2-Iodoacetamide for 30 min, protected from light. Samples were next acidified using 100% formic acid and desalted using 10 mg Sep-Pak tC18 μElution plates with peptide elutions at 15% acetonitrile and 50% acetonitrile, which were subsequently pooled. The volume of eluted peptides was reduced using vacuum centrifugation.” left out

Assay [4] deals with T4, HLA-C*04:01 (human).
T4 construct: MHC class I molecule expressed by the cells or tissue sample (endogenous or BAP-tagged), immunopurified before peptide elution
As to the kind of experiment: MS validation of HLA class I-presented peptide; sample CAMA1. The protocol: as §1, with “MHC molecules were eluted using 10% acetic acid and peptides were isolated using 10K molecular weight cut-off filtration following filter passivation with 1% bovine serum albumin (BSA). If required, samples were next reduced and alkylated using 5 mM Bond-Breaker TCEP solution at 60° C. for 30 min followed by 15 mM 2-Iodoacetamide for 30 min, protected from light. Samples were next acidified using 100% formic acid and desalted using 10 mg Sep-Pak tC18 μElution plates with peptide elutions at 15% acetonitrile and 50% acetonitrile, which were subsequently pooled. The volume of eluted peptides was reduced using vacuum centrifugation.” left out

Assay [5] has as its target T5, HLA-C*06:02 (human).
T5 construct: MHC class I molecule expressed by the cells or tissue sample (endogenous or BAP-tagged), immunopurified before peptide elution
As to the kind of experiment: MS validation of HLA class I-presented peptide; sample human prostate. The protocol: as §1

Assay [6] concerns the target T2, HLA-C*07:02. As to the kind of experiment: MS validation of HLA class I-presented peptide (second allele under Allele (MS)); sample human prostate. The protocol:
as §1, with “MHC molecules were eluted using 10% acetic acid and peptides were isolated using 10K molecular weight cut-off filtration following filter passivation with 1% bovine serum albumin (BSA). If required, samples were next reduced and alkylated using 5 mM Bond-Breaker TCEP solution at 60° C. for 30 min followed by 15 mM 2-Iodoacetamide for 30 min, protected from light. Samples were next acidified using 100% formic acid and desalted using 10 mg Sep-Pak tC18 μElution plates with peptide elutions at 15% acetonitrile and 50% acetonitrile, which were subsequently pooled. The volume of eluted peptides was reduced using vacuum centrifugation.” left out

In assay [7] the target is T4, HLA-C*04:01. As to the kind of experiment: MS validation of HLA class I-presented peptide; samples B721, A375. The protocol:
as §1, with “MHC molecules were eluted using 10% acetic acid and peptides were isolated using 10K molecular weight cut-off filtration following filter passivation with 1% bovine serum albumin (BSA). If required, samples were next reduced and alkylated using 5 mM Bond-Breaker TCEP solution at 60° C. for 30 min followed by 15 mM 2-Iodoacetamide for 30 min, protected from light. Samples were next acidified using 100% formic acid and desalted using 10 mg Sep-Pak tC18 μElution plates with peptide elutions at 15% acetonitrile and 50% acetonitrile, which were subsequently pooled. The volume of eluted peptides was reduced using vacuum centrifugation.” left out

Assay [8] deals with T3, HLA-A*02:01. As to the kind of experiment: MS validation of HLA class I-presented peptide; samples lung tumor, GBM, OvCa13, breast tumor, A375, MSV000082648. The protocol:
as §1, with “MHC molecules were eluted using 10% acetic acid and peptides were isolated using 10K molecular weight cut-off filtration following filter passivation with 1% bovine serum albumin (BSA). If required, samples were next reduced and alkylated using 5 mM Bond-Breaker TCEP solution at 60° C. for 30 min followed by 15 mM 2-Iodoacetamide for 30 min, protected from light. Samples were next acidified using 100% formic acid and desalted using 10 mg Sep-Pak tC18 μElution plates with peptide elutions at 15% acetonitrile and 50% acetonitrile, which were subsequently pooled. The volume of eluted peptides was reduced using vacuum centrifugation.” left out

Assay [9] concerns the target T6, HLA-C*07:01 (human).
T6 construct: MHC class I molecule expressed by the cells or tissue sample (endogenous or BAP-tagged), immunopurified before peptide elution
As to the kind of experiment: MS validation of HLA class I-presented peptide; samples MDAPCa2b, human prostate. The protocol: as §1, with “MHC molecules were eluted using 10% acetic acid and peptides were isolated using 10K molecular weight cut-off filtration following filter passivation with 1% bovine serum albumin (BSA). If required, samples were next reduced and alkylated using 5 mM Bond-Breaker TCEP solution at 60° C. for 30 min followed by 15 mM 2-Iodoacetamide for 30 min, protected from light. Samples were next acidified using 100% formic acid and desalted using 10 mg Sep-Pak tC18 μElution plates with peptide elutions at 15% acetonitrile and 50% acetonitrile, which were subsequently pooled. The volume of eluted peptides was reduced using vacuum centrifugation.” left out

In assay [10] the target is T2, HLA-C*07:02. As to the kind of experiment: MS validation of HLA class I-presented peptide (second allele under Allele (MS)); samples MDAPCa2b, human prostate. The protocol:
as §1, with “MHC molecules were eluted using 10% acetic acid and peptides were isolated using 10K molecular weight cut-off filtration following filter passivation with 1% bovine serum albumin (BSA). If required, samples were next reduced and alkylated using 5 mM Bond-Breaker TCEP solution at 60° C. for 30 min followed by 15 mM 2-Iodoacetamide for 30 min, protected from light. Samples were next acidified using 100% formic acid and desalted using 10 mg Sep-Pak tC18 μElution plates with peptide elutions at 15% acetonitrile and 50% acetonitrile, which were subsequently pooled. The volume of eluted peptides was reduced using vacuum centrifugation.” left out

For assay [11], the target named is T3, HLA-A*02:01. As to the kind of experiment: MS validation of HLA class I-presented peptide; multiple cell lines and tumor samples. The protocol:
as §1, with “MHC molecules were eluted using 10% acetic acid and peptides were isolated using 10K molecular weight cut-off filtration following filter passivation with 1% bovine serum albumin (BSA). If required, samples were next reduced and alkylated using 5 mM Bond-Breaker TCEP solution at 60° C. for 30 min followed by 15 mM 2-Iodoacetamide for 30 min, protected from light. Samples were next acidified using 100% formic acid and desalted using 10 mg Sep-Pak tC18 μElution plates with peptide elutions at 15% acetonitrile and 50% acetonitrile, which were subsequently pooled. The volume of eluted peptides was reduced using vacuum centrifugation.” left out

In assay [12] the target is T7, HLA-B*07:02 (human).
T7 construct: MHC class I molecule expressed by the cells or tissue sample (endogenous or BAP-tagged), immunopurified before peptide elution
As to the kind of experiment: MS validation of HLA class I-presented peptide; sample human prostate. The protocol: as §1

As for HPEYNRPLL (listed as Homo sapiens), in assay [1], the “dot product similarity score of peptide fragment ions” value was 0.992.

For the molecule LRPGDDSTL (4002 is used here), the binding result in assay [2] was “binds”.

With SLDQKLFQL, the binding result in assay [3] is reported as “binds”.

In the case of SIPTKALEL, the binding result in [4] is listed as “binds”.

For the molecule NRPLLANDL, the binding result in [5] and in assay [6] was “binds” in each case.

Turning to SVPNKALEL, the binding result in assay [7] is listed as “binds”.

As for GVYDGREHTV, in assay [8], the binding result is recorded as “binds”.

Take IRNKSVILL: the binding result in [5] and in [6] was “binds” throughout.

Turning to QRVPVSHSF, the binding result in [9] and in [10] was “binds” throughout.

With SLLQHLIGL, in assay [11], the binding result is on record as “binds”.

In the case of MPALPMVL, the binding result in assay [12] was “binds”.

Take VFQVSHSF: the binding result in assay [2] is recorded as “binds”.
